Results: the nanobody polyreactivity screen of Harvey et al. (2022)

Test: yeast display, Sf9 membrane polyspecificity reagent, FACS + sequencing; frameworks hold sequencing errors
Procedure, shortened: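 Genes from sorted yeast were amplified by colony PCR, read by MiSeq 2 × 250 sequencing and filtered on CDR length. These cells carried a synthetic nanobody library in Saccharomyces cerevisiae BJ5465 and were sorted by FACS into low and high (top ~1%) gates on anti-HA and streptavidin fluorescence. Polyreactivity is labelled according to the gate of origin.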

Row | Sequence | polyreactivity (PSR sort gate)
1 | QVQLVESGGRLVQAGGSLRLSCAASGFIISFNAMGWYRQATGKERELVATISGGGGSTYYADSVKGRFTISRDKAKNTVYLQMKSLKPEDTAVYYCAKSYRYRGDYWGQGTQVTVSS | high polyreactivity
2 | QVQLVESGGRLVQAGGSLRLSCAASGFTFGAYAMGWYRQAPGKERELVATIRYSGDSTYYADSVKGRFTISRDNAKNTVYLQMNSLKPEDTAVSSCAAYSTEGGGSPDWFESFDYWGQGTQVTVSS | low polyreactivity
3 | QVQLVESGGRLVQAGGSLRLSCAASGFTFLYYAMGWYRQAPGKERELVATITRTSRTYYADSVKGRFTISRDNAKNTVYLQMNSLKPEDTAVYYCAADTPYLRRRLGMDYWGQGTQVTVSS | high polyreactivity
4 | QVQLVESGGRLVQAGGSLRLSCAASGGTFPTNAMGWYTQAPGKERELVAAITSSGVRTYYADSVKGRFTISRDNAKNTVYLQMNSLKPEDTAVYYCNAVTRYVRLTDDDYWGQGSQVTVSS | high polyreactivity
5 | QVQLVESGGRLVQAGGSLRLSCAASGIIFFYYTIGWSRQAPGKERELVAAISSGGGTYYADSVKGRFTISRDNAKNTVYLQMNSLKPEDTAVYYCAAVRYSSSSRGGYWGQGTQVTVSS | high polyreactivity
6 | QVQLVESGGRLVQAGGSLRLSCAASGITFIDYAMGWYRQAPGKERELVAAIRYSAGSTYYADSVKGRFTISRDNAKNTVYLQMNSLKPEDTAVYYCARTTPSGRQYRRYDYWGQGTQVTVSS | low polyreactivity
7 | QVQLVESGGRLVQAGGSLRLSCAASGITFYLNAMGWYRQAPGKERELVADITVSGGSTYYADSVKGRFTISRDNAKNTVYLQMNSLKPEDTAVYYCAADLTISYSQEYYYWGQGNQVTVSS | low polyreactivity
8 | QVQLVESGGRLVQAGGSLRLSCAASGLTFSSYAMGWYRQAPGKERQLVAAISRGGGSTYYADSVKGRFTISRDNAKNTGYLQMNSLKPEDTAVYYCAADSGFWWLYDYWGQGTHVTVSS | high polyreactivity
9 | QVQLVESGGRLVQAGGSLRLSCAASGLTFVYNTMGWYSQAPGKERKLVAAISSSGGTTYYADSVKGRFTISRDNAKNTVYLQMNSLKPEDTAVYYCAARPSGGYESTRTRDYWGQGTQVTVSS | low polyreactivity
10 | QVQLVESGGRLVQAGGSLRLSCAASGRIFATYAMGWYRQAPGKEWQLVAGITSGGRTNYADSVKGRFTISRDNAKNTVYLQMNSLKPEDTAVYYCDKRVWPRDQYGKRNPRMDYWGQGTQETVSS | high polyreactivity
11 | QVQLVESGGRLVQAGGSLRLSCAASGRIFKYYAMGWYRPAPGKERELVAAINRDGGRTYYADSVKGRFTISRDTAKISVYLQMNSLKPEDTAVYYCAASYGYVYTTSLDYWGQGTQVTVSS | low polyreactivity
12 | QVQLVESGGRLVQAGGSLRLSCAASGRIFRRYAMGWYRQAPGKERELVAAISGSGGSTYYADSVKGRFTISRDNAKNTVYLQMNCLKPEDTAVYYCAARVGLGYDRLKSEYNYWGQGTQVTVSS | high polyreactivity
13 | QVQLVESGGRLVQAGGSLRLSCAASGRIFSIYGMGWYRPAPGKERELVAVISGSVGITYYADSVKGRFTISRDNAKNTVYLQMNSLKPEDTAVYYCNAKVRRRKYDYWGQGTQVTVSS | high polyreactivity
14 | QVQLVESGGRLVQAGGSLRLSCAASGRIFTWYAMGWYRQAPGKERELVAAISWTGGTTYYADSVKGRFTISRVNAKNTVYLQMNSMKPEDTEVYYCNKVVGFRSNFGGYGYCGQGTQVTVSS | high polyreactivity
15 | QVQLVESGGRLVQAGGSLRLSCAASGRIFWWNAMGWYRQAPGKERQFVAAISYRGGSTYYADSVKGRFTISRDNAKNTVYLQMNSLKPEDTAVYYCAADWTYVGPSYSYYYWGQGTQVTVSS | low polyreactivity
16 | QVQLVESGGRLVQAGGSLRLSCAASGRIFYNYSMGWYRQAPGKERELVATIRYRGGSTYYADSVKGRFTISRDNAKNTVYLQMNSLKPEDTAVYYCAARFNYNRDYPYYSWGQGTQVNVSS | high polyreactivity
17 | QVQLVESGGRLVQAGGSLRLSCAASGRNFGVNAMGWYRQAPGKERELVAAISVSGDSTYYADSVKGRFTISRDNAKNTVYLQMNSLKPEDTAVYYCNAGYTFVPADLTDEYYWGQGTQVTVSS | low polyreactivity
18 | QVQLVESGGRLVQAGGSLRLSCAASGRTFDYYDMGWYRQAPGKERELVAAITWGGGSTYYADSVKGRFSISRDNAKNTVYLQMNSLKPEDTAVYYCNADHFGWPWRVRIHEDDYWGQGTQVTVSS | low polyreactivity
19 | QVQLVESGGRLVQAGGSLRLSCAASGRTFGGYMGWYRQAPGKESELVAVISSGDSTNYADSVKGRFTITRDNAKNTVYLQMNSVKPEDSAVYYCIAYGSDRLTLDDFWGQGTQVTVSS | low polyreactivity
20 | QVQLVESGGRLVQAGGSLRLSCAASGRTFKKYAMGWYRQAPGKERELVAAITGSGGSTYYADSVKGRFTISRDNAKNTVYLQMNSLKPEDTAVYYCAAYAYGVWHSQDGGNFWGQGTQVTVSS | low polyreactivity
21 | QVQLVESGGRLVQAGGSLRLSCAASGRTFSAYAMGWYRPAPGKERELVARITSVDSTNYADSVKGRFTISRDNAKNTVYLQMNSPKPEDTAVYYCNATFGYPFVDYDDYWGQGTQVTVSS | low polyreactivity
22 | QVQLVESGGRLVQAGGSLRLSCAASGRTFTRNAMGWYRQAPGKERELVAAISWSGGSTYYADSVKGRFTISRDNAKNTVYLQMNSLKPEDTAVYYCAARIWYYNYWGQGTQVTVSS | high polyreactivity

Row | Sequence | polyreactivity (PSR sort gate)
23 | QVQLVESGGRLVQAGGSLRLSCAASGRTFTYYAMGWYRQATGKERELVARITTVGSSTYYADSVKGRFTISRDNAKNTVYLQMNSLKPEETAVYYCNADHLWYSLFDYWGQGTQVTVSS | high polyreactivity
24 | QVQLVESGGRLVQAGGSLRLSCAASGRTFYRYAMGWYRQAPGKERELVAAITWSGGSTYYADSVKGRFTTSRDNAKNTVYLQMNSLKPEDTAVYYCAATKRRFVKFDYWGQGTQVTVSS | low polyreactivity
25 | QVQLVESGGRLVQAGGSLRLSCAASGRTFYRYVMGWYRQAHGQVRELVAAISEGGGSTFYADSVKGRFTISRDNAKNTVYLQLNSLKPEDTAVYYCAADYYVRGGFFRYDYWGQGTQVTVSS | low polyreactivity
26 | QVQLVESGGRLVQAGGSLRLSCAASGRTIGYYAMGWSRQAPGNEWELVAAISGSGGSTYYADSVKGRFTISRDNAKNTVYLQMNSLKPEDTAVYYCAATTQSRRYEYYYWGQGTQVTVSS | high polyreactivity
27 | QVQLVESGGRLVQAGGSLRLSCAASGRTIRYNAMGWYRQAPGKERELVASISDGGSTNYADSVKGRFTISRDNAKNTVYLQMNSLKPEDTAVYYCALAGYRRYGYVYWGQGTQVTVSS | low polyreactivity
28 | QVQLVESGGRLVQAGGSLRLSCAASGSIFGYNAMGWYRQAPGKESELVAAIDKSGGNTYYADSVKGRFTISRDNANYTVYLQMNSLKPEDTAVDYCAVRAYRHRSGYSYGYWGQGTQVTVSS | high polyreactivity
29 | QVQLVESGGRLVQAGGSLRLSCAASGSIFRSNAMGWYRQAPGKERELVATISSSTGSTYYADSVKGRFTISRDNAKNTVYLQMNSLKPEDTAVYNCAAVQPVKSSSGYHFWYYWGQGTQVTVSS | high polyreactivity
30 | QVQLVESGGRLVQAGGSLRLSCAASGSIFSKYTMGWYRQAPGKERELVAAISRAGSTYYADSVKGRFTISRDNAKNTVYLQMNSLKPEDTAVYYCNARYRGVYPLIGNRRDYYYWGQGTQVTVSS | high polyreactivity
31 | QVQLVESGGRLVQAGGSLRLSCAASGSIFYDNAMGWYRQAPGKERELVAVITVSGDSTYYADSVKGRFTISRDNAKNTVYLQMNSLKPEDTAVYYCNTDAISGSHFWRYITFGYLDDYWGQGTQVTVSS | low polyreactivity
32 | QVQLVESGGRLVQAGGSLRLSCAASGSIFYYNVMGWYRQAPGKERELVAAIDIDGSTYYADSVKGRFTISRDNAKNTVYLQMNSLKPEDTAVYYCAADVHTPALYTYAAGDYWGQGTQVTVSS | low polyreactivity
33 | QVQLVESGGRLVQAGGSLRLSCAASGSIFYYYAMGWYRQAPGKERELVAAINGGDTYYADSVKGRFTISRDNAKNTVYLQMNSLKPEDTAVYYCAAEGVTVEWDYDYLGQGTQVTVSS | low polyreactivity
34 | QVQLVESGGRLVQAGGSLRLSCAASGSTFGWNAMGWYRQAPGKETELVAAISRSGGRTYYADSVKGRFTISRDNANNTVYLQMISLKPEVTAVYYCAADRSTTGGLRGYWGQGTQVTVSS | high polyreactivity
35 | QVQLVESGGRLVQAGGSLRLSCAASGSTFIQNAMGWSRQAPGKDRELVAAITSGGGTNYADSVKGRFTISRDNAKNTVYLQMNSLKPEDTAVYYCAAEPFNYDDFWFGWEYLYDYWGQATQVTVSS | low polyreactivity
36 | QVQLVESGGRLVQAGGSLRLSCAASGSTFTLYAMGWYRQAPGKERELVAAITWRGGSTFYADSVKGRFTISRDNAKNSVYLQMNSLKPEDTAVYYCAADYYSYVVGRIYYWGQGTQVNVSS | high polyreactivity
37 | QVQLVESGGRLVQAGGSLRLSCAASGSTFTVYAMGWYRQAPGKESELVAVITGSGGSTYYADSVKGRFTISRDNAKNTVYLQINSLKPEDTAVYYCAKEPGENWTVSWRDFDYWGQGTQVTVSS | low polyreactivity
38 | QVQLVESGGRLVQAGGSLRLSCAASGSTFYTNAMGWYRQSPGKEMELVAAITSNGDSTYYADSVKGRFTISRDNAKNTVYLQMNSLKPEDTAVYYCAAREFYGGYDNNYDYWGQGTQVTVSS | low polyreactivity
39 | QVQLVESGGRLVQAGGSLRLSCAASGSTIYPNAMGWYRPAPGTERELVAGITTIGGSTYYADSVKGRFTISRDNAKNTVYLQMNSLKPEDTAVYYCAARWTFSTWIGFDYWGQGTQVTVSS | low polyreactivity
40 | QVQLVESGGRLVQAGGSLRLSCAASGSTSTLYAMGWYRQAPGKERELVAAISKSGGRTYYADSVKGRFTISRDNAKNTVYLQMNSLKPEDTAVYYCNTVPGRYRTFDYWGQGTQVTVSS | high polyreactivity
41 | QVQLVESGGRLVQAGGSLRLSCAASGTFDLSAMGWYSQAPGKERELVAAITYRGDTTYYADSVKGRFTISRDNAKNTVYLQMNSMKPEDTAVYYCAAEWYYQFSSWYDYWGQGSQVTVSS | high polyreactivity
42 | QVQLVESGGRLVQAGGSLRLSCAASVITFLGNAMGWYRQAPGKERELVAAISASGGRTYYADSVKGRFTISRDNAKNTVYLLMNSLKPEDTAVYYCAAASKPWYYYWGQGTQVTVSS | high polyreactivity
43 | QVQLVESGGRLVQAGGSLRLSCAAYGSTFQVNAMGWYRQAPGKERELVAAISRGGGSTYYADSVKGRFTISRDNAKNTVYLQMNSLKPEETAVYYCAAVYYRRISQGDTQTYYQYNYWGQGTQVTVSS | high polyreactivity
